Test [1] has as its target T1, human ROR2-hFc fusion protein (extracellular domain) (human).
T1 construct: Whole entry 'human ROR2-Fc (CHO)'; also called hROR2
As to the kind of experiment: monoclonal phage ELISA on coated ROR2-Fc.

Test [2] addresses T2, human ROR1 on the surface of ROR1hi human cancer cell lines (human, UniProt Q01973 30-937).
T2 construct: whole, on cells; Cell line is named under assay; also called cell surface ROR1
As to the kind of experiment: flow cytometry, A549 (ROR1hi) cells, 4°C.

The target of test [3] is T3, human ROR1-hFc fusion protein (extracellular domain) (human).
T3 construct: Whole entry 'human ROR1-Fc (CHO)'; also called hROR1; huROR1-Fc
T3 sequence (chain, as listed by the source limits assumed): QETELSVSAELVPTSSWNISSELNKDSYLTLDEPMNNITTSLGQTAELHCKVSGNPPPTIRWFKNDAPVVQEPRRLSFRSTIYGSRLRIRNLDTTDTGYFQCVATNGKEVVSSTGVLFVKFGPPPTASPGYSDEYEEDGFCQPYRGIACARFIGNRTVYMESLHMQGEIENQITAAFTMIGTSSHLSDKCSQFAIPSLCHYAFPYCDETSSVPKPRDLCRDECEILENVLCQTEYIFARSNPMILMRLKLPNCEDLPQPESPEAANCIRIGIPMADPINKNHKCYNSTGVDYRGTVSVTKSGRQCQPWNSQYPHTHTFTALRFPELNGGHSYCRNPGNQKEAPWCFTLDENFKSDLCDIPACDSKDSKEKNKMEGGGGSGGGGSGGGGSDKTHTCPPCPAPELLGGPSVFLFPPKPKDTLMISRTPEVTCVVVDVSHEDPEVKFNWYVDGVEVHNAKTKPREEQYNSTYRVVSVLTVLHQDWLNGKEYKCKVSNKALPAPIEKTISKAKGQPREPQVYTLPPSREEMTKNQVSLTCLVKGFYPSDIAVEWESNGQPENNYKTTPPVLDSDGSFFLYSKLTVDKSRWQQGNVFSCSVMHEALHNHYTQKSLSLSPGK
Put plainly: SPR, ROR1-hFc on chip.
Protocol: (§1) Binding kinetics were determined using a Pioneer Surface Plasmon Resonance (SPR) instrument (SensiQ/Pall ForteBio). […] VNARs and VNAR-Fc molecules were tested at various concentrations and the Ka (M⁻¹s⁻¹), Kd (s⁻¹) and KD (nM) values were determined using QDat software (SensiQ/Pall ForteBio).

Test [4] deals with T1, human ROR2-hFc fusion protein …. As to the kind of experiment: SPR, ROR2-hFc on chip.
In test [5] the target is T4, D3 his myc.
T4 construct: VNAR; made in E. coli and in HEK293 (expression system under assay); also called D3 WT
As to the kind of experiment: competition ELISA: D3 pre-incubated with peptide, residual binding to coated huROR1-Fc.

Test [6] concerns the target T5, B1 VNAR with C-terminal His6Myc tag.
T5 construct: VNAR, E. coli; also called B1 his myc; B1HisMyc monomer
Put plainly: competition ELISA: B1 pre-incubated with peptide, residual binding to coated huROR1-Fc.
Protocol: (§2) In brief, ELISA method as follows. Wells coated with 100 ng antigen and incubated, covered, at room temperature for 2 hr. Plates washed 3×400 ul per well with PBST (PBS+0.05% Tween 20 (v/v)), then blocked with 4% skimmed milk powder (w/v) in PBST for 1 hour at 37° C. Plates washed as before plus additional wash in PBS alone. Binding proteins were diluted in 4% milk PBST and incubated overnight at 4° C. Plates washed 3× with PBST, 3×PBS and binding detected using appropriate secondary detection antibody in 4% milk PBST, room temperature 1 hour. […] Rabbit anti-Mouse IgG H&L, HRP (Abcam #ab97046) [0360] Mouse anti-polyHis, HRP (Sigma #A7058)
(§3) Competition assays were conducted as described in the methods with all four peptides reconstituted in PBS.

The target of test [7] is T6, D3-[G4S]5-D3 his myc.
T6 construct: VNAR homodimer by genetic fusion; also called D3-D3; D3 dimer
Put plainly: competition ELISA: D3-D3 pre-incubated with peptide, residual binding to coated huROR1-Fc.

For test [8], the target named is T7, P3A1 his myc.
T7 construct: VNAR; also called P3A1 6xHis myc
T7 VNAR: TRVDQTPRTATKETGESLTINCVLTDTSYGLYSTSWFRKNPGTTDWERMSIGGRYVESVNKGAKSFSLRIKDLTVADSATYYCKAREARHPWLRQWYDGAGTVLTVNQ
As to the kind of experiment: competition ELISA: P3A1 pre-incubated with peptide, residual binding to coated huROR1-Fc.
Protocol: as §2, §3

The target in test [9] is T8, human serum albumin (human, UniProt P02768 25-609).
T8 construct: also called HSA
As to the kind of experiment: BLI, HSA on sensor.
Protocol: (§4) Binding kinetics were determined using a SPR (as previously described) or using Biolayer interferometry (K2 Octet instrument/Pall ForteBio). […] VNARs and VNAR-Fc molecules were tested at various concentrations and the Ka (M−1s−1), Kd (s−1) and KD (nM) values were determined using the Octet data analysis HT software (Pall ForteBio).

In test [10] the target is T3, human ROR1-hFc fusion protein …. Put plainly: BLI, ROR1-hFc on sensor.
Protocol: as §4
Test [11] concerns the target T9, mouse ROR1-Fc fusion protein (mouse).
T9 construct: Whole entry 'mouse ROR1-Fc (CHO)'; also called mROR1
As to the kind of experiment: ELISA.

For test [12], the target named is T3, human ROR1-hFc fusion protein …. As to the kind of experiment: BLI, ROR1-hFc on sensor, 200 nM HSA present.
Protocol: as §4
Test [13] deals with T1, human ROR2-hFc fusion protein …. As to the kind of experiment: SPR, ROR2-hFc on chip. This is another data set of the same source.
Protocol: as §1
(§5) The ability of the VNAR-MMAE conjugates and VNAR-fluorescein conjugates to bind to human ROR1 ECD was determined by SPR using the procedures described above.
Test [14] concerns the target T3, human ROR1-hFc fusion protein …. As to the kind of experiment: SPR, ROR1-hFc on chip. The source holds these as a separate data set.
Protocol: as §1, §5
Test [15] addresses T9, mouse ROR1-Fc fusion protein. As to the kind of experiment: SPR, mouse ROR1 on chip.
Protocol: as §1
Test [16] concerns the target T10, rat ROR1-Fc fusion protein (rat).
T10 construct: Whole entry 'rat ROR1-Fc (CHO)'; also called rROR1
As to the kind of experiment: SPR, rat ROR1 on chip.
Protocol: as §1

The target of test [17] is T1, human ROR2-hFc fusion protein …. As to the kind of experiment: SPR, ROR2-hFc on chip. The source holds these as a separate data set.
Protocol: as §1, §4
The target in test [18] is T3, human ROR1-hFc fusion protein …. Put plainly: SPR, ROR1-hFc on chip. This is another data set of the same source.
Protocol: as §1

T1 sequence (chain, as listed by the source limits assumed): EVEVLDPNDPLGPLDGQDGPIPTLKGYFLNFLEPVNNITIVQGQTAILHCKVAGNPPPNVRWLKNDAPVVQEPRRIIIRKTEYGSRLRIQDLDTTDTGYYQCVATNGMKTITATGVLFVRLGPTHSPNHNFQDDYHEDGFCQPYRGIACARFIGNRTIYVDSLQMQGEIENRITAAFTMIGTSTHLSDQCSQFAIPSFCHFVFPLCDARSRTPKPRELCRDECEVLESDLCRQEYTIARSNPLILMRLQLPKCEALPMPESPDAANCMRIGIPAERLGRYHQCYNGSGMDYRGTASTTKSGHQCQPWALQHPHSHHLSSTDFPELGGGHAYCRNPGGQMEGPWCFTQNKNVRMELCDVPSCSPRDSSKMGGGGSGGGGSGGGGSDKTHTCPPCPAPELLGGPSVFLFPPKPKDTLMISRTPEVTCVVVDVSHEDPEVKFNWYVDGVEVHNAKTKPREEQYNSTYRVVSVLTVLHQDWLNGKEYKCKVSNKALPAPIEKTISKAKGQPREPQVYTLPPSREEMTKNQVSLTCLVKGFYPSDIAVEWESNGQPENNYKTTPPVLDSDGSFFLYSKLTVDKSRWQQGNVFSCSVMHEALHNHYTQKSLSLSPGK
T10 sequence (chain, as listed by the source limits assumed): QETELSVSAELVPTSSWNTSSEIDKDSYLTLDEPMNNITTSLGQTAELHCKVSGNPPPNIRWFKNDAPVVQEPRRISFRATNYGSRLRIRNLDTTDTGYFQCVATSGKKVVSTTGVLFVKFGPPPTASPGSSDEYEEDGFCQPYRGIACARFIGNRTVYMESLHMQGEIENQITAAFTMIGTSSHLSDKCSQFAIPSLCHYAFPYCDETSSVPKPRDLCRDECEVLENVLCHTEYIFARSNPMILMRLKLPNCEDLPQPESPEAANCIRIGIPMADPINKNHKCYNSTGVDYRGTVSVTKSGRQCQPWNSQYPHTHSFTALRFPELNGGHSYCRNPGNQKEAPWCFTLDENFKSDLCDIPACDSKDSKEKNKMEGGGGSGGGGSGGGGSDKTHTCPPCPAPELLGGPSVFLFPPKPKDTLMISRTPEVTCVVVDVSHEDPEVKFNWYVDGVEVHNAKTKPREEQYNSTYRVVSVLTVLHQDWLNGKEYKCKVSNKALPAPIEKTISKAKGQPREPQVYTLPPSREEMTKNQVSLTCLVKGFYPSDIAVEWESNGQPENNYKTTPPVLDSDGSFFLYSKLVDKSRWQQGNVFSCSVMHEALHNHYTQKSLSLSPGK
T9 sequence (chain, as listed by the source limits assumed): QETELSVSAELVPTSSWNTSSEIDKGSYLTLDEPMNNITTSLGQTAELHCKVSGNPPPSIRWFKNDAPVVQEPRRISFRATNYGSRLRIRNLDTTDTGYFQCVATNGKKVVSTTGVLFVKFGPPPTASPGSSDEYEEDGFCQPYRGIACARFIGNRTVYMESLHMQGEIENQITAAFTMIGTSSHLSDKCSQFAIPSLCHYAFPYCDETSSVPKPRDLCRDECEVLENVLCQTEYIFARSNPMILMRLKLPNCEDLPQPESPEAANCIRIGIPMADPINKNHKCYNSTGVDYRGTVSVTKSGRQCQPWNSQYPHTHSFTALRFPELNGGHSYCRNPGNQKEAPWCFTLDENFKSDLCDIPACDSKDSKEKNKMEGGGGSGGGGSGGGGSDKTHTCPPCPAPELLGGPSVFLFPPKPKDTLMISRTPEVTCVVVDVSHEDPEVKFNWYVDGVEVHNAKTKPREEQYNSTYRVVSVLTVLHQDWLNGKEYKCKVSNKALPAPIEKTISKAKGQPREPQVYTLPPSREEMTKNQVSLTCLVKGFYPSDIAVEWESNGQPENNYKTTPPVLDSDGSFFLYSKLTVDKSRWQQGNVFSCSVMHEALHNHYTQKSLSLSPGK

B1: E7 (VNAR)
VNAR: TRVDQTPRTATKETGESLTINCVVTGAKYGLAATYWYRKNPGSSNQERISISGRYVESVNKRTMSFSLRIKDLTVADSATYYCKAYPWAMWGQWYDGAGTVLTVN
notes: also called E7 phage clone; E7 monoclonal phage
For B1, the binding result in test [1] is “no binding”.

B2: B1G1-B1G1 HisMyc (VNAR)
chain: TRVDQSPSSLSASVGDRVTITCVLTGANYGLASTYWYRKNPGSSNKEQISISGRYSESVNKGTKSFTLTISSLQPEDSATYYCRAYPWGAGAPWLVQWYDGAGTKVEIKGGGGSGGGGSGGGGSGGGGSGGGGSTRVDQSPSSLSASVGDRVTITCVLTGANYGLASTYWYRKNPGSSNKEQISISGRYSESVNKGTKSFTLTISSLQPEDSATYYCRAYPWGAGAPWLVQWYDGAGTKVEIKQASGAHHHHHHGAEFEQKLISEEDL
notes: VNAR fusion
With B2, in test [2], the “Median YL1-PE” value worked out at 1470.

B3: P3A1 his (VNAR)
VNAR: TRVDQTPRTATKETGESLTINCVLTDTSYGLYSTSWFRKNPGTTDWERMSIGGRYVESVNKGAKSFSLRIKDLTVADSATYYCKAREARHPWLRQWYDGAGTVLTVNQ
notes: VNAR; also called P3A1 6xHis
Consider B3, for which, in test [3], the affinity, expressed as Kd, was 7.8 nM; the off-rate constant (koff) was 0.0206 s⁻¹; the on-rate constant (kon) was found to be 2.92e+06 M⁻¹ s⁻¹. Also, the binding result in [4] is recorded as “no binding”.
On to QCVATNGKEVVSSTGVLFVKFGPPPTASPGYSDEYE (linear ROR1 ECD peptide) [Peptide 4], for which the binding result is on record as “no binding” in test [5], “no binding (tested: 10 uM)” in [6], “no binding” in test [7] and “no binding (tested: about 500 uM as the axis is labelled)” in test [8].
As to CQPWNSQYPHTHTFTALRFP (linear ROR1 ECD peptide) [Peptide 3], the binding result in test [5] is “no binding”; in [6], “no binding (tested: 10 uM)”; in test [7], “no binding”; in test [8] it was “no binding (tested: about 500 uM as the axis is labelled)”.

B4: Peptide 2 (peptide)
peptide: RSTIYGSRLRINLDTTDTGYFQ
notes: linear ROR1 ECD peptide; insoluble in PBS
Take B4: the binding result in test [5] was “no binding”; in test [6] it was “no binding (tested: 10 uM)”; in test [7], “no binding”; in test [8], “no binding (tested: about 500 uM as the axis is labelled)”.
In the case of YMESLHMQGEIENQI (linear ROR1 ECD peptide) [Peptide 1], the binding result is given as “no binding” in test [5], “no binding (tested: 10 uM)” in [6], “no binding” in test [7] and “no binding (tested: about 500 uM as the axis is labelled)” in test [8].

B5: P3A1 Wobbe-G4S-BA11-Wobbe-G4S-P3A1 CysHisMyc (VNAR)
chain: TRVDQTPRTATKETGESLTINCVLTDTSYGLYSTSWFRKNPGTTDWERMSIGGRYVESVNKGAKSFSLRIKDLTVADSATYYCKAREARHPWLRQWYDGAGTVLTVNPGVQPSPGGGGSTRVDQSPSSLSASVGDRVTITCVLTDTSYPLYSTYWYRKNPGSSNKEQISISGRYSESVNKGTKSFTLTISSLQPEDSATYYCRAMSTNIWTGDGAGTKVEIKPGVQPSPGGGGSTRVDQTPRTATKETGESLTINCVLTDTSYGLYSTSWFRKNPGTTDWERMSIGGRYVESVNKGAKSFSLRIKDLTVADSATYYCKAREARHPWLRQWYDGAGTVLTVNQACKAHHHHHHGAEFEQKLISEEDL
notes: VNAR fusion; also called P3A1-BA11-P3A1
For B5, the figures for the Kd in [9], in [10] and in [12] were 5.58 nM, 2.54 nM and 1.6 nM, respectively. In addition, the off-rate constant (koff) is 0.00069 s⁻¹ in test [9] and 0.00044 s⁻¹ in test [10]. For the same molecule, the kon in test [9] stood at 124000 M⁻¹ s⁻¹; in [10], 173000 M⁻¹ s⁻¹. Besides, the binding result in [11] is “binds”.

B6: P3A1-P3A1-S-mal-vcMMAE (VNAR)
chain: TRVDQTPRTATKETGESLTINCVLTDTSYGLYSTSWFRKNPGTTDWERMSIGGRYVESVNKGAKSFSLRIKDLTVADSATYYCKAREARHPWLRQWYDGAGTVLTVNGGGGSGGGGSGGGGSGGGGSGGGGSTRVDQTPRTATKETGESLTINCVLTDTSYGLYSTSWFRKNPGTTDWERMSIGGRYVESVNKGAKSFSLRIKDLTVADSATYYCKAREARHPWLRQWYDGAGTVLTVNQASGAHHHHHHGAEFEQKLISEEDL
modifications: C-terminal thiol conjugated to MC vc PAB MMAE
B6: the binding result in [13] is reported as “no binding”. For the same molecule, in test [14], binding was put at a Kd of 0.59 nM, the koff amounted to 0.0026 s⁻¹ and the kon was found to be 4.96e+06 M⁻¹ s⁻¹.

B7: P3A1-P3A1-Ox-vcMMAE (VNAR)
chain: TRVDQTPRTATKETGESLTINCVLTDTSYGLYSTSWFRKNPGTTDWERMSIGGRYVESVNKGAKSFSLRIKDLTVADSATYYCKAREARHPWLRQWYDGAGTVLTVNGGGGSGGGGSGGGGSGGGGSGGGGSTRVDQTPRTATKETGESLTINCVLTDTSYGLYSTSWFRKNPGTTDWERMSIGGRYVESVNKGAKSFSLRIKDLTVADSATYYCKAREARHPWLRQWYDGAGTVLTVNQASGAHHHHHHGAEFEQKLISEEDL
modifications: C-terminal aminoxy oxime-linked to benzaldehyde PEG2 vc PAB MMAE
On to B7, for which the binding result in [13] is recorded as “no binding”. In [14], this molecule displayed an equilibrium dissociation constant (Kd) of 1.43 nM, a dissociation rate constant (koff) of 0.00277 s⁻¹ and a kon of 2.07e+06 M⁻¹ s⁻¹.

B8: P3A1-P3A1-Ox-MMAE (VNAR)
chain: TRVDQTPRTATKETGESLTINCVLTDTSYGLYSTSWFRKNPGTTDWERMSIGGRYVESVNKGAKSFSLRIKDLTVADSATYYCKAREARHPWLRQWYDGAGTVLTVNGGGGSGGGGSGGGGSGGGGSGGGGSTRVDQTPRTATKETGESLTINCVLTDTSYGLYSTSWFRKNPGTTDWERMSIGGRYVESVNKGAKSFSLRIKDLTVADSATYYCKAREARHPWLRQWYDGAGTVLTVNQASGAHHHHHHGAEFEQKLISEEDL
modifications: C-terminal aminoxy oxime-linked to benzaldehyde PEG4 MMAE
For the molecule B8, the binding result in [13] is on record as “no binding”. Moreover, in test [14], the dissociation constant (Kd) turned out to be 0.78 nM, the dissociation rate constant (koff) came out at 0.0032 s⁻¹ and the kon is 4.2e+06 M⁻¹ s⁻¹.

B9: P3A1 (VNAR)
VNAR: TRVDQTPRTATKETGESLTINCVLTDTSYGLYSTSWFRKNPGTTDWERMSIGGRYVESVNKGAKSFSLRIKDLTVADSATYYCKAREARHPWLRQWYDGAGTVLTVN
notes: also called P3A1 phage clone; P3A1 monoclonal phage
With B9, the binding result in [1] is recorded as “no binding”.

B10: BA11 Wobbe-G4S-P3A1-Wobbe-G4S-P3A1-CysHisMyc (VNAR)
chain: TRVDQSPSSLSASVGDRVTITCVLTDTSYPLYSTYWYRKNPGSSNKEQISISGRYSESVNKGTKSFTLTISSLQPEDSATYYCRAMSTNIWTGDGAGTKVEIKPGVQPSPGGGGSTRVDQTPRTATKETGESLTINCVLTDTSYGLYSTSWFRKNPGTTDWERMSIGGRYVESVNKGAKSFSLRIKDLTVADSATYYCKAREARHPWLRQWYDGAGTVLTVNPGVQPSPGGGGSTRVDQTPRTATKETGESLTINCVLTDTSYGLYSTSWFRKNPGTTDWERMSIGGRYVESVNKGAKSFSLRIKDLTVADSATYYCKAREARHPWLRQWYDGAGTVLTVNQACKAHHHHHHGAEFEQKLISEEDL
notes: VNAR fusion; also called BA11-P3A1-P3A1
For the molecule B10, the results for the equilibrium dissociation constant (Kd) in [9], in [10] and in [12] were 5.08 nM, 3.47 nM and 2.53 nM, respectively. Also, the off-rate (koff) was determined as 0.000566 s⁻¹ in [9] and 0.000447 s⁻¹ in test [10]. The values for the on-rate (kon) in test [9] and in test [10] were 111000 M⁻¹ s⁻¹ and 129000 M⁻¹ s⁻¹, respectively. Also, the binding result in [11] is recorded as “binds”.

B11: CPF7 his myc (VNAR)
VNAR: TRVDQTPRTATKETGESLTINCVVTGAKYGLFATYWYRKNPGSSNQERISISGRYVESVNKRTMSFSLRIKDLTVADSATYYCKAVFMPQHWHPAAHWYDGAGTVLTVNQ
notes: VNAR
As to B11, in test [15], the Kd was 19.1 nM, the koff came out at 0.032 s⁻¹ and the on-rate (kon) is 2.26e+06 M⁻¹ s⁻¹. In test [16], this molecule returned a Kd of 68.6 nM, a koff of 0.0366 s⁻¹ and an on-rate (kon) of 772000 M⁻¹ s⁻¹. Besides, the binding result in [17] is given as “no binding”. For the same molecule, in test [18], the Kd came out at 13.6 nM, the koff stood at 0.0296 s⁻¹ and the kon turned out to be 2.33e+06 M⁻¹ s⁻¹.

Values taken from patent publication US20230203155A1 (ALMAC DISCOVERY, published 2023).
